Test results as given in publication PMC10485164, “Sequence-specific targeting of Caenorhabditis elegans C-Ala to the D-loop of tRNAAla”.

Tests used:
Ce-C-Alac K934A = molecular target: T1, Ce-C-Alac K934A (Caenorhabditis elegans, UniProt O01541 757-968, K934A); assay: EMSA; 5 mM Mg2+; EMSA: 20 mM Hepes pH 7.5, 20 mM KCl, 5 mM MgCl2, 2 mM DTT, 10 min on ice, 0.1 uM ligand; 5% native PAGE in 0.5x TBE at 4 C; protein 0.125-32 uM; conditions: protein: recombinant; tags: His6 (C-terminal, pET21b); label: 5'-32P; tRNA cloverleaf
T1 sequence: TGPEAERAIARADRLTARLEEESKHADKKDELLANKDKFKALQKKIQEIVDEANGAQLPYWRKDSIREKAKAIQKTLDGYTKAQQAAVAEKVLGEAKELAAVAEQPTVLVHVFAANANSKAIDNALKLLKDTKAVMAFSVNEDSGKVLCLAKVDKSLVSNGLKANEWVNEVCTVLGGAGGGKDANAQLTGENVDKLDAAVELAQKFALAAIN

Ce-C-Alac K938A = molecular target: T2, Ce-C-Alac K938A (Caenorhabditis elegans, UniProt O01541 757-968, K938A); assay: as above; conditions: protein: recombinant; tags: His6 (C-terminal, pET21b); label: 5'-32P; tRNA cloverleaf
T2 sequence: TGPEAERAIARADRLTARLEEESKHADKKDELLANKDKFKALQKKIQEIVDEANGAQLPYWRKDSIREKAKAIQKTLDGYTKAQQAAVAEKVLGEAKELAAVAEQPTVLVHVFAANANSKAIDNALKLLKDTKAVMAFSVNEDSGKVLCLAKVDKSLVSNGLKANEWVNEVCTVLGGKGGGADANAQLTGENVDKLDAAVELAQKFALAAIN

B1: CetRNAnAla (structured_RNA)
RNA: GGGGGUAUAGCUCAGUGGUAGAGCGCUCCCUUAGCAUGGGAGAGGGCUGGGGUUCAAUUCCCCAUACCUCCACCA
- binding signal (Ce-C-Alac K934A): 11 fold lower affinity than WT Ce-C-Alac
- binding signal (Ce-C-Alac K938A): 3 fold lower affinity than WT Ce-C-Alac
